# What was measured:
# [1] = target: T1, LRP2 CR3031 (human, UniProt P98164 3677-3755); test: solid-phase assay on coated CR protein, each ligand at 80 nM, blank-corrected absorbance
# T1 construct: domain: CR3031; Its cloning is not described in the methods; not shown: N-terminal hexahistidine and S-peptide tags of pET30(+)a
# [2] = target: T2, LRP2 CR3536 (human, UniProt P98164 3882-3963); test: as above
# T2 construct: domain: CR3536; not shown: N-terminal hexahistidine and S-peptide tags of pET30(+)a
# [3] = target: T3, LRP2 CR2728 (human, UniProt P98164 3552-3631); test: as above
# T3 construct: domain: CR2728; Its cloning is not described in the methods; not shown: N-terminal hexahistidine and S-peptide tags of pET30(+)a
# T3 sequence (looked up): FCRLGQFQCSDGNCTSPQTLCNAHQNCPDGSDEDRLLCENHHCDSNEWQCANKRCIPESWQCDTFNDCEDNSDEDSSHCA
# [4] = target: T4, LRP2 CR34-36 (human, UniProt P98164 3841-3963); test: as above
# T4 construct: domain: CR34-36; not shown: N-terminal hexahistidine and S-peptide tags of pET30(+)a
# [5] = target: T5, LRP2 CR89 Y1042W V1047D R1088D (human, UniProt P98164 1022-1105); test: solid-phase assay; OD at the highest ligand concentration as percent of the highest OD of all ligands
# T5 construct: also called WDWD
# T5 chain: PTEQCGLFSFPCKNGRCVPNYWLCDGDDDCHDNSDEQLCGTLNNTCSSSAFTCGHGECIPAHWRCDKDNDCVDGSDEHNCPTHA
# Description: (§1) Solid phase binding assays-Purified, refolded CR protein (1 μg) was bound to Nunc Maxisorp™ 96-well plates in TBS pH 8 supplemented with 5 mM CaCl₂ (TBSC) overnight at 4° C. Wells were washed with TBSC and then blocked with TBSC containing 2% bovine serum albumin (BSA). […] Control wells contained no added ligand. As an additional control, to determine whether the absence of calcium affected binding, 10 mM EGTA was included in the incubation medium for some samples. […] Excess primary antibody was removed and wells washed before incubation with the secondary antibody, HRP-conjugated goat anti rabbit IgG (Bio-Rad). After washing, TMB substrate solutions (Bio-Rad) were added to detect HRP. Color development was stopped with 1N HCl. Absorption at 450 nm was measured with a microplate spectrophotometer (Molecular Devices). Data were plotted and Kd values derived by non-linear regression with the assumption of single-site binding (GraphPad Prism).
# (§2) To test this idea, mutant LRP2 CR89 were prepared in which the native, non-canonical residues at these positions were sequentially substituted with the non-native, canonical residues. As defined above, the A, C, A′, C′ string for LRP2 CR89 is YVWR. Mutants included LRP2 CR89 Y1042W (WVWR), LRP2 CR89 V1047D (YDWR), LRP2 CR89 R1088D (YVWD), LRP2 CR89 V1047D R1088D (YDWD), LRP2 CR89 Y1042W V1047D R1088D (WDWD), LRP2 CR89 Y1042W V1047D (WDWR), LRP2 CR89 Y1042W R1088D (WVWD).
# [6] = target: T6, LRP2 CR89 V1047D R1088D (human, UniProt P98164 1022-1105); test: as above
# T6 construct: also called YDWD
# T6 sequence: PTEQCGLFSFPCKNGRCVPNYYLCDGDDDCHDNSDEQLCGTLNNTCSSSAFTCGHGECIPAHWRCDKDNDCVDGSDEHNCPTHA
# Description: as §1, §2
# [7] = target: T7, LRP2 CR89 (human, UniProt P98164 1025-1102); test: as above
# T7 construct: domain: CR89; also called YVWR; L2 CR89; not shown: N-terminal hexahistidine and S-peptide tags of pET30(+)a
# Description: as §1, §2
# [8] = target: T8, LRP2 CR89 Y1042W R1088D (human, UniProt P98164 1022-1105); test: as above
# T8 construct: also called WVWD
# T8 chain: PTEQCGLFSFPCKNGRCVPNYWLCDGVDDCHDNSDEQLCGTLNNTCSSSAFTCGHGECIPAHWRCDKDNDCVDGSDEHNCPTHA
# Description: as §1, §2
# [9] = target: T9, LRP2 CR89 R1088D (human, UniProt P98164 1022-1105); test: as above
# T9 construct: also called YVWD
# Description: as §1, §2
# [10] = target: T10, LRP2 CR89 V1047D (human, UniProt P98164 1022-1105); test: as above
# T10 construct: also called YDWR
# T10 sequence: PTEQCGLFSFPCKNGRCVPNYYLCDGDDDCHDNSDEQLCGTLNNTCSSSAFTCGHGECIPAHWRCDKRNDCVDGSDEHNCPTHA
# Description: as §1, §2
# [11] = target: T11, LRP2 CR89 Y1042W V1047D (human, UniProt P98164 1022-1105); test: as above
# T11 construct: also called WDWR
# T11 chain: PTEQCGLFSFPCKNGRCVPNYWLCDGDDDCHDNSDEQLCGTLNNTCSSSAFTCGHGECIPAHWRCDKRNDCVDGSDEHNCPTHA
# Description: as §1, §2
# [12] = target: T9, LRP2 CR89 R1088D; test: solid-phase binding assay, CR protein coated on plate, anti-RAP detection
# [13] = target: T12, LRP1 CR3-5 (human); test: solid-phase assay; OD at the highest ligand concentration as percent of the highest OD of all ligands
# T12 construct: range 852-973; also called L1 CR3-5
# Description: as §1
# [14] = target: T7, LRP2 CR89; test: as above; remark: listed apart in the source
# Description: as §1
# T7 sequence (P98164 1025-1102): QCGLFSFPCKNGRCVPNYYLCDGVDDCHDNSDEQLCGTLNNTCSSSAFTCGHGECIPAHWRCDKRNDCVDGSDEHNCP
# T4 sequence (P98164 3841-3963): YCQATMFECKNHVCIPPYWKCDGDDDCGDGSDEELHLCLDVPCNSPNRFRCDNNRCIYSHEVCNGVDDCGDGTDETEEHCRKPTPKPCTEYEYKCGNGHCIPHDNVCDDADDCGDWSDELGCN
# T12 sequence (Q07954 852-973): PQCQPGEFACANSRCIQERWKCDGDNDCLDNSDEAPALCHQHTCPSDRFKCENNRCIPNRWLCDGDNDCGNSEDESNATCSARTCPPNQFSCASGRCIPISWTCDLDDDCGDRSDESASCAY
# T2 sequence (P98164 3882-3963): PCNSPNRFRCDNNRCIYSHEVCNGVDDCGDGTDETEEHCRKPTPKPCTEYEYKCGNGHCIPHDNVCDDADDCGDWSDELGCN
# T1 sequence (P98164 3677-3755): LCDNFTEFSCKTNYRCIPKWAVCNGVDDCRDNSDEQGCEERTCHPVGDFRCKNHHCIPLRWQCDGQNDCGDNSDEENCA
binder,measurement,setting,value
"MegaRAP1 d3 (ligand, V175L lies outside the d3 construct; also called RAPv2A d3; RAP v2 d3; not shown: N-terminal hexahistidine and S-peptide tags of pET30(+)a) LDRLRRVSHQGYTTEAKFEEPRVIDLWDLAQSANLTDKELEAFREELKYFKAKIEAHNHYQKQLEIAHEELRHAESVGDGERVSRSREKHALLEGRTKELGYTVKKHLQDLSGRISRAR",binding result,[1],no binding (tested: 80 nM)
same,binding result,[2],no binding (tested: 80 nM)
same,binding result,[3],no binding (tested: 80 nM)
same,binding result,[4],no binding (tested: 80 nM)
same,% max bind,[5],1%
same,% max bind,[6],3%
same,% max bind,[7],100%
same,% max bind,[8],4%
same,% max bind,[9],55%
same,% max bind,[10],11%
same,% max bind,[11],3%
same,fold loss of affinity relative to LRP2 CR89,[12],~2 fold
same,% max,[13],4%
same,% max,[14],88%
